Consider two molecules from CN117999283A (INST BASIC SCIENCE; KOREA ADVANCED INST SCI & TECH, dated 2024).

For orientation: Kd means the concentration at which binding is half-saturated. By koff is commonly meant the first-order rate constant of dissociation. High values mean fast dissociation, low ones slow dissociation. A word on the kon: it is a measure of how fast the partners come together. High values mean fast association, low ones slow association.

B1: hTAAB (hTie2活化小鼠单克隆抗体, 小鼠IgG1) (antibody, V domains shown)
VH: QVQLQQPGAELVRPGASVKLSCKASGYSFTSYWMNWVKQRPGQGLEWIGMIHPSDSETRLNQKFMDKATLTVDKSSSTAYMQLSSPTSEDSAVYYCARGLYGNSWGQGTLVTVSA
VL: DIQMTQSPSSLSASLGERVSLTCRASQDIGISLNWLQQEPDGTIKRLIYATSSLDSGVPKRFSGSRSGSDYSLTISSLESEDFVDYYCLQYASSPYTFGGGTKLEIK
notes: Mouse IgG1 from a hybridoma; also called 小鼠hTAAB; 亲本hTAAB
B2: 人Tie2 ECD (人Tie2的第23-735位残基) (receptor, human, UniProt Q02763 23-735, looked up)
chain: AMDLILINSLPLVSDAETSLTCIASGWRPHEPITIGRDFEALMNQHQDPLEVTQDVTREWAKKVVWKREKASKINGAYFCEGRVRGEAIRIRTMKMRQQASFLPATLTMTVDKGDNVNISFKKVLIKEEDAVIYKNGSFIHSVPRHEVPDILEVHLPHAQPQDAGVYSARYIGGNLFTSAFTRLIVRRCEAQKWGPECNHLCTACMNNGVCHEDTGECICPPGFMGRTCEKACELHTFGRTCKERCSGQEGCKSYVFCLPDPYGCSCATGWKGLQCNEACHPGFYGPDCKLRCSCNNGEMCDRFQGCLCSPGWQGLQCEREGIQRMTPKIVDLPDHIEVNSGKFNPICKASGWPLPTNEEMTLVKPDGTVLHPKDFNHTDHFSVAIFTIHRILPPDSGVWVCSVNTVAGMVEKPFNISVKVLPKPLNAPNVIDTGHNFAVINISSEPYFGDGPIKSKKLLYKPVNHYEAWQHIQVTNEIVTLNYLEPRTEYELCVQLVRRGEGGEGHPGPVRRFTTASIGLPPPRGLNLLPKSQTTLNLTWQPIFPSSEDDFYVEVERRSVQKSDQQNIKVPGNLTSVLLNNLHPREQYVVRARVNTKAQGEWSEDLTAWTLSDILPPQPENIKISNITHSSAVISWTILDGYSISSITIRYKVQGKNEDQHVDVKIKNATITQYQLKGLEPETAYQVDIFAENNIGSSNPAFSHELVTLPES
notes: range 23-735; The construct is defined on GenBank AAH35514.2; Tags are not described; also called hTie2 ECD

Data set [1] has as its target B2. Briefly: SPR (Biacore T200): hTie2 ECD amine-coupled on CM5, IgG as analyte at 0-64 nM, 1:1 model.
Data set [2] concerns the molecule itself. Briefly: SEC-MALS; self-association in solution. On the technique in general: Size exclusion chromatography separates by hydrodynamic size, large species first.

Take B1: in data set [1], the Kd was found to be 4.2 nM, the koff worked out at 0.0006 s⁻¹ and the kon worked out at 140000 M⁻¹ s⁻¹.
For the molecule B2, the binding result in data set [2] was “no binding (tested: 1mg/ml)”.
